Substrate: Nc1nc2c(ncn2[C@@H]2O[C@H](COP(=O)(O)OP(=O)(O)OP(=O)(O)O)[C@@H](O)[C@H]2O)c(=O)[nH]1
Assay: Malachite green phosphate release, Michaelis-Menten fit
Format: biochemical, Sulfolobus acidocaldarius
Conditions: 65 °C, 0-500 µM GTP, 50 mM Tris pH 8.0, 150 mM NaCl, 10 mM MgCl2, 10 µM SaGPN

B1: SaGPN (Sulfolobus acidocaldarius DSM 639) (protein)
chain: MYFIFVLGTAGSGKTTLVKALQDYLLNNELDTAIINLDPAVEVLPYKPDIDAREYVDVYDVMNKYELGPNSSLVISVDLLLTKAKELKEDLNQLQANYVLVDTPGQIELFAYRDTGKILSSFISEGSKSVSVFLFDSYLSKDPKSFLSLFLLSSSIKFRIDMPQISVLSKVDLLSSSELERMRSWIEDGSIIDELGSIDEYSFELVKTIVENLESFPIPVSSTNFSGLDQLYAEVQKVLAGGEDFETEEPNPRL
notes: E. coli BL21(DE3) Rosetta; Y2-A240 built, 14 C-terminal residues disordered
With B1 as the protein, how does the Km read?
Its Km is 40.48 µM.

From PMC10746158, “Archaeal GPN-loop GTPases involve a lock-switch-rock mechanism for GTP hydrolysis” (mBio, 2023)
